Data from US20230158179A1 (RAYZEBIO, published 2023).
Bridge positions count the residues as written; N and C are the ends. Square brackets hold non-standard residues; d marks the D form. Phe(3-Ph) = N[C@@H](Cc1cccc(-c2ccccc2)c1)C(=O)O; Bip = N[C@@H](Cc1ccc(-c2ccccc2)cc1)C(=O)O; Phe(3-Cl) = N[C@@H](Cc1cccc(Cl)c1)C(=O)O; NMeY = CN[C@@H](Cc1ccc(O)cc1)C(=O)O; NMeF = CN[C@@H](Cc1ccccc1)C(=O)O; Cba = N[C@@H](CC1CCC1)C(=O)O; Chg = N[C@H](C(=O)O)C1CCCCC1

B1: P-10 (peptide)
peptide: ARL[NMeF]DYDT[NMeY][NMeY]WYC-NH2
modifications: bridge N-13; not fully specified (N-terminus, bridges)
notes: The cell assay detects with SA-647, so a biotinylated form was used
B2: P-40 (peptide)
peptide: [dA]D[Bip]IYPA[Bip]SSES[NMeF]C-NH2
modifications: bridge N-14; not fully specified (N-terminus, bridges)
notes: The cell assay followed the procedure with biotinylated compounds
B3: P-12 (peptide)
peptide: DR[Chg][NMeF]DYDT[NMeY][NMeY]WYC-NH2
modifications: bridge N-13; not fully specified (N-terminus, bridges)
B4: P-21 (peptide)
peptide: W[Phe(3-Ph)]DVDSD[Cba]W[Phe(3-Ph)]DC-NH2
modifications: bridge N-12; not fully specified (N-terminus, bridges)
B5: P-11 (peptide)
peptide: DR[Chg][NMeF]D[Phe(3-Cl)]DT[NMeY][NMeY]WYC-NH2
modifications: bridge N-13; not fully specified (N-terminus, bridges)
notes: as for B1

How the values were obtained:
[1] = molecular target: T1, Human Serum Albumin (human, UniProt P02768 25-609); assay: HSA-HPLC, immobilised HSA column, estimated from retention time; grade legend paragraph 440: 90% < A <= 100%
T1 construct: Immobilised on the HPLC column; also called HSA
From the text: HSA-HPLC method (measurement of drug protein binding by immobilized human serum albumin-HPLC). A 13-minute HPLC (Thermo Vanquish Horizon with Diode Array Detector) gradient method was used to determine the HSA (Human Serum Albumin) binding of novel compounds using a chemically bonded protein stationary phase (ChiralPAK HSA HPLC column, 50×4 mm). The HSA binding values were derived from the gradient retention times that were converted to the logarithm of the equilibrium constant using data from a calibration set of molecules. The % bound to plasma values for the calibrator compounds were converted to the linear free energy values using the following equation: LogK=log[% PPB/(101−% PPB)]. The logarithmic value of the gradient retention times from the experiment were plotted against the linearized values of the percent bound to plasma. The slope and the intercept were used to convert the retention times to linear free energy values (LogK), from which the estimated % protein binding was calculated using the following equation: % Binding=[(101·10^LogK)/(1+10^LogK)]. Aqueous mobile phase (A) was 50 mM ammonium acetate solution, ph7.4 and the organic mobile phase (B) was 2-propanol. The flow rate was set at 0.350mL/min and injection volume was 5 uL, with samples prepared at 0.5 mg/mL concentration in 50:50 mobile phase. The initial LC conditions were conducted at room temperature, set at 0% B and ramped to 50% B over 8.5 minutes, then held at 50% B for 1.5 minutes before going back to initial conditions and re-equilibrating the column for 2.5 minutes. Chromatograms were recorded at 280 nm by a diode array UV absorption detector.

[2] = molecular target: T2, FOLR1 on FOLR1 expressing cells (IGROV1) (UniProt P15328 25-234, limits assumed); assay: flow cytometry on IGROV1 cells in human plasma/PBS, detection with SA-647; grade legend paragraph 454: 0 nM < A <= 100 nM
T2 construct: whole, on cells; also called folate receptor 1
T2 sequence (P15328 25-234 limits assumed): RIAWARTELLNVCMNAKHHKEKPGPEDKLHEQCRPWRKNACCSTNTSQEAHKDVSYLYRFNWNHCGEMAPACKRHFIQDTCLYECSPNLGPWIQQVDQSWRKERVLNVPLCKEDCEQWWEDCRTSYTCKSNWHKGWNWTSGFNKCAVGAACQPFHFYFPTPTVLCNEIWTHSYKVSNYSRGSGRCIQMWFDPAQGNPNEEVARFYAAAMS

[3] = molecular target: T3, FOLR1-Fc-Avi (AcroBiosystems, F01-H82F9) (UniProt P15328 25-234, biotinylated (immobilised by streptavidin-biotin chemistry)); assay: SPR, Biacore 8K, FOLR1-Fc-Avi immobilised, single cycle kinetics, 1:1 model; grade legend paragraph 444: 0 nM < A <= 10 nM
T3 construct: Bought reagent; also called folate receptor 1
T3 sequence (P15328 25-234 limits assumed): as above
Protocol: For analysis of peptide binding, a Biacore 8K instrument was used utilizing either a SA chip or a CAP chip. FOLR1-Fc-Avi (AcroBiosystems, F01-H₈₂F9) was immobilized on the chip using streptavidin-biotin chemistry at 25° C. in PBS-P+ buffer (20 mM phosphate, 2.7 mM KCl, 137 mM NaCl, 0.05% Tween-20, pH 7.4) to a level of 500-2500 RU (dependent on the analyte molecular weight). A dilution series of peptides was prepared in this buffer with a final DMSO concentration of 1% with a top peptide concentration at 50 or 100 nM and 8 further 2-fold dilutions. The SPR analysis was run at 25° C. at a flow rate of 100 μL/min in PBS-P+ with 1% DMSO running buffer and with a 120 second association and 10,000 second dissociation using single cycle kinetics methodology. All data was analyzed using Biacore Insight Evaluation Software version 3.) Data was fitted using a Langmuir 1:1 binding model.

[4] = molecular target: T4, Trop-2 on Trop-2 expressing cells (A431) (UniProt P09758 27-323, limits assumed); assay: flow cytometry on A431 cells, procedure of the PSMA cell assay; grade legend paragraph 462: 0 nM < A <= 100 nM
T4 construct: whole, on cells; also called tumor-associated calcium signal transducer 2
T4 sequence (looked up): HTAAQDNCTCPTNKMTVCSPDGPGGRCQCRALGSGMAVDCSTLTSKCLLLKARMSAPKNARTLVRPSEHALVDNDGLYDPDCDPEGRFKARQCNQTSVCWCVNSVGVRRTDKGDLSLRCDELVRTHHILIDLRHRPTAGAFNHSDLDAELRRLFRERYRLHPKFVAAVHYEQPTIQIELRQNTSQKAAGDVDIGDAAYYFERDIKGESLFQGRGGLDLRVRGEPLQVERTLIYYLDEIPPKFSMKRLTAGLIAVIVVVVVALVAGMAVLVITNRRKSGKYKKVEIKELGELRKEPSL

[5] = molecular target: T5, His-Avi-PSMA (AcroBiosystems, PSA-H82Qb) (UniProt Q04609 44-750, biotinylated (immobilised by streptavidin-biotin chemistry)); assay: SPR, Biacore 8K, His-Avi-PSMA immobilised, single cycle kinetics, 1:1 model; grade legend paragraph 447: 0 nM < A <= 10 nM
T5 construct: Bought reagent; also called prostate-specific membrane antigen
T5 sequence (Q04609 44-750 limits assumed): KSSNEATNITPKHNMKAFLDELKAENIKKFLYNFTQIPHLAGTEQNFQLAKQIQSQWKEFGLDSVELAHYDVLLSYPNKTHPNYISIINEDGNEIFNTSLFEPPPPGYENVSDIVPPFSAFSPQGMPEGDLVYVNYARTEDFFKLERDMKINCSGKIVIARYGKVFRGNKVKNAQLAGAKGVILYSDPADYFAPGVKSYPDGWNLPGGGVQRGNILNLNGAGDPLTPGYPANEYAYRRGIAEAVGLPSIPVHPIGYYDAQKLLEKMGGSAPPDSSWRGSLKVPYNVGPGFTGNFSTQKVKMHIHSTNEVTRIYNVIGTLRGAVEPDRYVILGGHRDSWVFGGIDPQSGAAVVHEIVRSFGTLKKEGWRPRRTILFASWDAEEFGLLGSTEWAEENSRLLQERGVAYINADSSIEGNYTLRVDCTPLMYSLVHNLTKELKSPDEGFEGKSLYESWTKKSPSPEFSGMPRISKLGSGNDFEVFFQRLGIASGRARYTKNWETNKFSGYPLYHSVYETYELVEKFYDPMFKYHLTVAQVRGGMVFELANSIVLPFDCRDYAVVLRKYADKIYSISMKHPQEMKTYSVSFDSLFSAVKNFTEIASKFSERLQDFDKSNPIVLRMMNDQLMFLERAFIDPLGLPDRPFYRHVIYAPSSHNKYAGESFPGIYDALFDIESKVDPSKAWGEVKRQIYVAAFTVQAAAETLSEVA
Protocol: For analysis of peptide binding, a Biacore 8K instrument was used utilizing a SA chip. His-Avi-PSMA (AcroBiosystems, PSA-H82Qb) was immobilized on the chip using streptavidin-biotin chemistry at 25° C. in HBS-P+ buffer (10 mM HEPES, 150 mM NaCl, 0.05% Tween-20, pH 7.4) to a level of 800-2200 RU (dependent on the analyte molecular weight). A dilution series of peptides was prepared in this buffer with a final DMSO concentration of 1% with a top peptide concentration between 10-100 nM and 8 further 2-fold dilutions. The SPR analysis was run at 25° C. at a flow rate of 100 μL/min in HBS-P+ with 1% DMSO running buffer and with a 120 second association and 10,000 second dissociation using single cycle kinetics methodology. All data was analyzed using Biacore Insight Evaluation Software version 3. Data was fitted using a Langmuir 1:1 binding model.

[6] = molecular target: T6, PSMA on PSMA expressing cells (LnCap) (UniProt Q04609 1-750, limits assumed); assay: flow cytometry on LnCap cells, biotinylated compound, detection with SA-A647; grade legend paragraph 460: 0 nM < A <= 100 nM
T6 construct: whole, on cells; also called prostate-specific membrane antigen
T6 sequence (Q04609 whole entry): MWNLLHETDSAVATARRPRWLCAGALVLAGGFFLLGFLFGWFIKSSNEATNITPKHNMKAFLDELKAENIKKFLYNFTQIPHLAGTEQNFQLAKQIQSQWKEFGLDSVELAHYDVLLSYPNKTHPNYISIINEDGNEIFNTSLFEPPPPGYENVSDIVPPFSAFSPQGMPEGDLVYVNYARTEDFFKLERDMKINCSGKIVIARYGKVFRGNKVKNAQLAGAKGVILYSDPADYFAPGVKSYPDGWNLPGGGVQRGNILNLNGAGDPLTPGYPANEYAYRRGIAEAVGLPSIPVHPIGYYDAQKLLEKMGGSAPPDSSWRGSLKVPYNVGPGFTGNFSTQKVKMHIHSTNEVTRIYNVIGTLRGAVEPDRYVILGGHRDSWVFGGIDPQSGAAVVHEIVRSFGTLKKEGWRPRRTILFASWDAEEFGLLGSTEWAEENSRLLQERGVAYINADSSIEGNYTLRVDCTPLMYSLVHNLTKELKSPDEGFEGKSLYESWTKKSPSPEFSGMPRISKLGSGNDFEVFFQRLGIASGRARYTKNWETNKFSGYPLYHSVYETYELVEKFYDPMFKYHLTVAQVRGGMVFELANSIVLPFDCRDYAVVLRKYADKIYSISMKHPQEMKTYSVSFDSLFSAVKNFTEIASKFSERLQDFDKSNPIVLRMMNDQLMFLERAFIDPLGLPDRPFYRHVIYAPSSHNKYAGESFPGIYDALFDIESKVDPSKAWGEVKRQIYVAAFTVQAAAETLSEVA

Row | Binder | % Bound to HSA at r.t. [1] [%] | EC50 [2] [nM] | Kd [3] [nM] | EC50 [4] [nM] | Kd [5] [nM] | EC50 [6] [nM]
1 | B1 | > 90 | ≤ 100 | ≤ 10 | – | – | –
2 | B2 | > 90 | – | – | ≤ 100 | – | –
3 | B3 | > 90 | – | ≤ 10 | – | – | –
4 | B4 | > 90 | – | – | – | ≤ 10 | ≤ 100
5 | B5 | > 90 | ≤ 100 | ≤ 10 | – | – | –
